In US20080207501A1 (published 2008):
Ends that are not written are not given here.

T1: amylin receptor (nucleus accumbens membranes prepared from rat brain) (rat, UniProt P32214 25-516)
T1 chain 1: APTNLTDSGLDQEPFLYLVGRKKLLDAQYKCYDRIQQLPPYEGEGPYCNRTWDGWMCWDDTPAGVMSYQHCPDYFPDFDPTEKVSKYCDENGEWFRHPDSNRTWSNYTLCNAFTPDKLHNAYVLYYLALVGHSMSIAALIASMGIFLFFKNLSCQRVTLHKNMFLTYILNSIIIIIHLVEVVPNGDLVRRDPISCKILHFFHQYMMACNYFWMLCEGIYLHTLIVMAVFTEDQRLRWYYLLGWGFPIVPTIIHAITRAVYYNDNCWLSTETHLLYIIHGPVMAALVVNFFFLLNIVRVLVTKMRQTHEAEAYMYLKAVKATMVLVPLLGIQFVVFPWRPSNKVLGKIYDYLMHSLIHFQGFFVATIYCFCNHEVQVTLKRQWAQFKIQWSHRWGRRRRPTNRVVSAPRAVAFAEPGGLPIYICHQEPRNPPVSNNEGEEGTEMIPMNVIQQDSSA
T1 chain 2: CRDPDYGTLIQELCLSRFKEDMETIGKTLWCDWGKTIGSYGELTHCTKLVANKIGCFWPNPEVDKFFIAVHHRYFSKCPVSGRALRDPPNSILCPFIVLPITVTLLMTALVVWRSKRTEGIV


Target: T1, amylin receptor (nucleus accumbens …)
Assay: radioligand binding assay (displacement of radiolabeled amylin)

| EC50 | Binder |
| --- | --- |
| > 100 nM | CGNLSTCMLGTYTQDFNKFHTFPQTAIGVGAP-NH2 (ends and bridges not checked) [Human Calcitonin] |
| 2.9 nM | TQAQLLRVGCVLGTCQVQNLSHRLWQLMGPAGRQDSAPVDPSSPHSY-NH2 (ends and bridges not checked) [Human AFP-6 [1-47]] |
